Results from the nanobody polyreactivity screen of Harvey et al. (2022).

experiment: yeast display, Sf9 membrane polyspecificity reagent, FACS + sequencing; frameworks hold sequencing errors
Summary of the method: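 Galactose-induced (36–48 hours) yeast carrying a synthetic nanobody display library were exposed to 10% biotinylated, detergent-solubilized Sf9 membrane reagent at 4 °C for 1 hour. FACS followed streptavidin microbead enrichment, using low and high (top ~1%) gates for expression (anti-HA) and reagent binding (streptavidin). Colony PCR, MiSeq 2 × 250 sequencing and CDR-length filtering followed. Labels for polyreactivity reflect the gate of origin.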

Row | Sequence | polyreactivity (PSR sort gate)
1 | QVQLVESGGGLVQAGGSLRLSCAASGRTFKPYVMGWYRQAPGKERELVAAISSRGDITYYADSVKCRFTISRHNAKNTVYLHMNSLKPEDTAVYYCNAGPAVRSAYSTPYYDYWGQGTQVTVSS | low polyreactivity
2 | QVQLVESGGGLVQAGGSLRLSCAASGSIFFYNAMGWYRQAPGKERELVAAISRGGNTNYADSVKGRFTISRDNAKNTVNLQLNSLKPEDTAVYYCNADYSFWATPYWEYGYDYWGQGTQVTVTS | low polyreactivity
3 | QVQHVESGGRLVQAGGILRLSCAASGRIFQSNAMGWYRQTPGKERELVAGITKRGGSTYYADSVKGRFTISLDYAKNTVYLQMNSLTPEDTAVYYCAKSWSYDPRYGSWGQGTQVTVSS | high polyreactivity
4 | QVQLVESGGGLVQAGGSLRLSCPASGHIFDYNALGWYRQAPGKERELVAAITSGGTTTYADSVKGRFTISRDNAKHTVYLQMNSLKPEDTAVYYCARKRYFGGWSRYGYGYWGQGTQVTVSS | high polyreactivity
5 | QVQLVESGGGLVQAGGSLRLSCAASGRTLQRNAMGWYRQAPGKERELVADISWSGASTYYADSVKGRFTISRDNAKNTVYLQMNSLKPEDTAVYYCAATYIDRGNIYDYWGQGTQVTVSS | high polyreactivity
6 | QVQLVESGGGLVQAGGSLRLSCAASGSTFNRNAMGWYRQAPGKERELVADISRGGRTYYSDSVKGRFTITRDNAKNTVYLQMNSLKPEDTAVFYCATVVSRGKQPFDMDYWGQGTQVTVSS | low polyreactivity
7 | QVQLVESGGGLVQAGGSLRFICAASGFSLYHYAMGWYRQAPGKERELVAAITTSGSRTYYADSVKGRFTISRDTAKITVYLQMNSLKPEDTAVYYCNAVASSTEYDYWGQGTQVTVSS | high polyreactivity
8 | QVQLVESGGGLVQAGGSLRLSCAASGRIFGDNGMGWYRQAPGKERELVTYADSVKGRFTISRDNAKNTVYLQLNSLQPEDTAVYYCYSPFGGKYDYWGQGTQVTVSS | low polyreactivity
9 | QDQLVESGGGLVQAGGSLRLTCAASGSIFGWYAMGWYRQAPGKEMELFAAITNSGGSTYYADSVKGRFTISRDNAKKTVYIQMNSLKPEETAVYYCAAESWIRRWYGGGKKYDYWGQGTQVTVSS | high polyreactivity
10 | QVQLVESGGGLVQAGGSLRLSCAASGFTSAVYAMGWYRQAPGKERELVAAIRRGGSTNYADSVKGRFTISRDNAKNTVYLQMNSLKPEDTAVYYCAAAGRGWFGYWGQGTQVTVSS | high polyreactivity
11 | QVQLVESGGGLVQAGGSLRLSCAASGITLNRNAMGWYRQAPGKERELVAAISSGGNTYYADSVKGRFSISRDNAKNTVYLQMNSLKPEDTEVYYCAARQVQAPRSIGFYFWGQGTQVTVSS | high polyreactivity
12 | QVQLVESGGGLVQAGGSLRLSCAASGRTFYYNTMGWYRQAPGKERELVAAITRGGSTYYADSVKGRFTISRVNAKNTVYLQMNSLKPEETAVYYCNAPRYLRRYVKDHDYWGEGTQVTVSS | high polyreactivity
13 | QVQLVESGGGLVQAGGSLRLSCAASGFIFSYYAMGWYRQAPGKERELVAAITSSGGSTYYADSVKGRFTISRDNAKNTVYLHLNSLKPEDTAVYYCNAYVRRTRDYDYWGQGTQVTVSS | high polyreactivity
14 | QVQIVESGGGLVQSGGSLRLSCAASGIIFSSNAMGWYRQAPGKERELVAAISRRGGSTYYADSVKGRFTISRDKAKNTVYLQMNSLKPEDTAVYYFIALLYNVAGYDYWGQGTQVTVSS | high polyreactivity
15 | QVQLVESGGGLVQAGGSLRLSCAASGSIFRANAMGWYRQAPGKERELVAAISYSGGSTYYADSVKGRFTISRDNAKNTVYLQMNTLKPEDTAVYYCAAEFLYASVYYSYWGQGTQVTVSS | high polyreactivity
16 | QVQLVESGGGLVQAGGSLRLSCAASGFIFNYYTMGWYRQAPGKEREFVAAIRRSGTRTYYADSVKGRFTISRDNAKNTVYLQMNSLKPEDTAVYYCAADVYRTYGMDYWGQGTQVTVSS | high polyreactivity
17 | QVQLVESGGGLVQAGGSLRLSCAASRYIFAHYAMGWYRQAPGKERELVAAISTRGGSTYYADSVKGRFTISRDNAKNTVYLQMNSLKPEDTAVYYCNNYRYAGITAEFYYWGQGTQVTVSS | high polyreactivity
18 | QVQLVESGGGLVQAGGSLRLSCAASGLTFLWYAMGWYRQAPGKERELVAAITSGGRTKYADSVKGRFTISRDNAKNTVYLQMNSLKPEDTAVYYCAAYTQWWGYDYWGQGTLVTVSS | high polyreactivity
19 | QVQLVESGGGLVQAGGSLRLSCAASGFIFPRYTMGWYRQAPGKERELVASITRGVRTHYADSVKGRFTISRDNAKNTVYLQMNSLKPEDTAVYYCARRNDYVYTRHFDSWGQGTQVTVSS | high polyreactivity
20 | QVQLVESGGGLVQAGGSLGLSCAASGFIFVRYAMGWYRQATGKERELVGAITSTGSTYYADSVKGRFTISRDKAKNTVYLQMNSLKPEDTAVYYCAAVSRTSITFGYYAEYDYWGQGTQVTVSS | low polyreactivity
21 | QVQLVESGGRLVQAGGSLRLSCAASGIIIRKYARGWYRPAPGKVRELVAAITTRGSRTYSADSVKGRFTISRDNAKNTVYLQMNSLKPEDTAVYYCAADRYTVRMDYWGQGTQVTVSS | high polyreactivity

Row | Sequence | polyreactivity (PSR sort gate)
22 | QVQLVESGGGIVQAGGSLRLSCAASGRIIGYYAMGWYIQAPGKERELVARISSSGGSTYYADSVKGRFTISRDNAKNTVYLQMNSLKPEVTAVYYCNTASNRFPGWRAEFDYWGQGTQVTVSS | low polyreactivity
23 | QVQLVESGGGLVQAGGSLRLSCAASGITLYYYAMGWYRQAPGKERELVAAISTSGGTTYYADSVKGRFTISRDNAKYTVYLQMNSLKPEDTAVYYCAARRRAFGSTYNYWGQGTQVTVSS | high polyreactivity
24 | QVQLVESGGGLVQAGCSLRLSCAASGRIFDGNAMGWYRQAPGKERELVAAISWTGGSTYYADSVKGRFTISRDNAKNTVYLQMNSLKPEDTAVYYCAADSGWWLEQWSWYDYWGQGTQVTVSS | low polyreactivity
25 | QVQLVESGGGLVQAGGSLRLSCAASGSIFRRYAMGWYRQAPGKERELVAAISFSGYSTYYADSVKGRFTISRDNAKNTVYLQMNSLKPEDTAVYYCAARSQRHKLSRDYNYWGQGTQVTVSS | high polyreactivity
26 | QVQLVESRGGLVQAGGSLRLSFAASGSNFGAYAMVWYRQAPGKERELVAGITGSGGTTYYADSVKGRFTISRDNGKNTVYLQMNSLTPEDTAVYDCAKRVWVRYYYWGQGTQVTVSS | high polyreactivity
27 | QVQLVESGGGLVQAGGSLRLSCAASGFTCTRNAMGWFRQAPGKERELVAAISSSAGSTSYADSVKGRFTISRDNAKNTDYLQMNSLKPEDTAVYYCATEGSYYSWVGKVGYRYQYHYWGQGTQVTVSS | high polyreactivity
28 | QVQLVESGGGLVQAGGSLRLSCAASGSIFRNYAMGWSRQAPGKERELVAAITSIGGGTYYADSVKGRFTISRDNAKNTVYLQMNSLKPEDTADYYCAADYGFYPYDYVYWGQGTQVTVSS | low polyreactivity
29 | QVQLVESGGGLVQAGGSLRLSCAASGFIFPNNAMGWYRHAPGKERELVARISYGGGDTHYADSVKGRFTISRDNAKNTVYLQMNSLKPEDTAVYYCAVKDGQDDYWGQGTQVTVSS | low polyreactivity
30 | QVQLVESGGGLVQAAGSLRLSCAASGRIFEIYAMGWYRQAPGKERELVAGITSVGSTNYADSVKGRFTISRDNAKNTVYLQMNSLKPVDTAVYYCAADTSVHSEVDYCGQGTQVTVSS | low polyreactivity
31 | QDQLVESGGGLVQAGVSLRLSCAASGSIIGSYAMGWYREAPAKERELVAAITRSGSRTYYADSVKGRFTISRDNAKNTVYLQINSLKPEDTAVYYCATGYPGGFDYWGLGTQVTVSS | high polyreactivity
32 | QVQLVESGGGLVQAGGSLRLICAASGSTFTRYAMGWYRQAPRKERELVAAISRGGSTNYADSVKGRFTISRDNAKNTVYLQMNSLKPEDTAVYYCAAARYRYYLGFGYDYWGQGTQVTVSS | high polyreactivity
33 | QVQLVESWGGLVQAGGSLRLSCADSGYTFYTNAMGWYREAPGKERELVAAISIGGNTNYADSVKGRFTISRDNAKNTVYLQMNSLKPEDTAVYYCAKAWSGISSRDYDLDYWGQGTQVTVSS | low polyreactivity
34 | QVHLVESGGGLVQAGGSLRLSSDASGSTFHPYAMGLYRQAPGKERELVAAISWTGGRTYYADSVKGRFTISRDYAKNTVYLQMNRLKREDTAVYYCAARTYGKVGYWGQGTQVTVSS | high polyreactivity
35 | QVQLVESGGGLVQAGGSLRLSCAASGRIFRYYAMGWYRQAPGKERELVAAIRIRGGSTSYADSVKGRFTISRDNAKNTVYLQMNSLKPEDTAVYYCNKRDKVTYSYDYWGQGTQVTVSS | high polyreactivity
36 | QVQHVESVGCLVQAGGTLRLSCASSVRTFLWYTMGWYRQAPGKKRELVATITSGGRTNYADSVKGRFTISRDNAKNTVYLQMNSLNPEDTAVYYCARLGAYTGRYDYWGQGTQVTVSS | high polyreactivity
37 | QVQLVESGGGLVQAGGSLRLSCADSGRTFYSYAMGWYRQAPGKERELVAAISASGGRTYYADSVKGRFTISRDNAKNTVYLQMNSLKPEDTAVYYCAAYVSGYRWGYDYWGQGTQVTVSS | high polyreactivity
38 | QVQLVESGGGLVQAGGSLRISCAASGRIFYYYDMGWYRQAPGKERELVAAISRSGGRTYYADSVKGRFTISRDNANNTVYLHMNSLKPEDTAVYYCNVVRQGGTLGYDYWGQGTQVTVSS | high polyreactivity
39 | QVQLVESGGGLVQAGGSLRLSCAASGYIFLSYAMGWYIQAPGKERELVAAISRGGRTYYADSVKGRFTISRDNAKNTVYLQMNSLKPEDTAVYYCNAVSTPGKYGYWGQGTQVTVSS | high polyreactivity
40 | QVQLVESGGGLVQAGGSLRLSCAPSGLIFDANAMGWYRQAPGKERELVAAISNGDSTYYADSVKGRFTISRDNAKNTLYLQMNSLKPEDTAVYYCNARIIYRKWLLRSGTFNYWGQGTQVTVSS | low polyreactivity
41 | QVQLVESGGGLVQAGGSLRLSCAASGSTLAFYAMGWYRQATGKQRELVAAISRSGGRTYYSDSVKGRFTISRDNAKNTVYLQMNSLKPEDTAVYYCAAYWYYYWWYDYWGQGTQVTVSS | high polyreactivity
